As a reminder, the Kd is a measure of binding affinity in units of concentration. A word on the koff: it is the rate constant with which the complex falls apart. The term kon denotes the second-order rate constant of association. One may read the stoichiometry N as a count of units in the complex or per binding partner.

Read-outs that look alike come from different tables or passages of the source.

Assay [1] addresses SusF, purified recombinant (untagged) (Legionella pneumophila (Philadelphia-1 Lp01)) (UniProt Q5ZSL2). Description: SPR. A general note: SPR reads the build-up and loss of mass on a sensor chip optically.
The target is the same in assay [2]. Description: SPR. The source holds these as a separate data set.
Assay [3] has as its target SusF co-expressed with SidI (Legionella pneumophila (Philadelphia-1 Lp01)). Description: SEC. (SEC sorts molecules by how far they enter the pores of the column.)

With “His6-SidI (from UniProt Q5ZSL3 1-942) (natural protein)”, in assay [1], the Kd is 3.1 nM; the koff,1 (two-state model, first step) turned out to be 0.00051 s⁻¹; the koff,2 (two-state model, second step) was 0.00045 s⁻¹; the kon,1 (two-state model, first step) was found to be 27000 M⁻¹ s⁻¹. In addition, the kon,2 (two-state model, second step) in assay [1] was 0.0023 s⁻¹. Besides, in assay [2], the Kd is 0.89 nM, the koff was found to be 0.00019 s⁻¹ and the kon amounted to 220000 M⁻¹ s⁻¹.
Regarding “SidI co-expressed with SusF (natural protein)”, the stoichiometry N in assay [3] came to 1.

The values above are taken from article doi:10.1101/845313.
